In paper PMC2175355 one finds binding signal (fold affinity vs holoenzyme without RapA) data, which are given here for one substance.

The target in the series is RNA polymerase holoenzyme (sigma70);RapA (native) (Escherichia coli;Escherichia coli) (UniProt P0A7Z4+P0A8V2+P0A8T7+P0A800+P00579+P60240). The experiment in a line: EMSA. In general terms: In EMSA bound probe runs differently from free probe, usually more slowly.

The substance “55-nt RNA with two stem-loops and rA18 tail” returned a binding signal (fold affinity vs holoenzyme without RapA) of more than 20.
